# Data taken from the nanobody polyreactivity screen of Harvey et al. (2022).
# Assay: yeast display, Sf9 membrane polyspecificity reagent, FACS + sequencing; frameworks hold sequencing errors
# In short: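 Galactose-induced (36–48 hours) yeast carrying a synthetic nanobody display library were exposed to 10% biotinylated, detergent-solubilized Sf9 membrane reagent at 4 °C for 1 hour. FACS followed streptavidin microbead enrichment, using low and high (top ~1%) gates for expression (anti-HA) and reagent binding (streptavidin). Colony PCR, MiSeq 2 × 250 sequencing and CDR-length filtering followed. Labels for polyreactivity reflect the gate of origin.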
row,Sequence,polyreactivity (PSR sort gate)
1,QVQLVESGGGLVQAGGSLRLSCAASGSIFKYYAMGWYRQAPGKERELVAAISRSGTSTYYADSVKGRFTISRDNAKNTVYLQMNSLKPEDTAVYYCAARLSYYSRMNYWGQGTQVTVSS,high polyreactivity
2,QVQLVESGGGLVQAGGSLRLSCAASGRISVFYAMGWYRQAPGKEMELGAAITRSGTTKYADSVKGRFTISRDNAKNTVYLQMNSLKPEDTAVYYCAARSVYYKFGYYYWGQGSQVTVSS,high polyreactivity
3,QVQLVESGGGLVQAGGSLRLSCAASGFIFRGYAMGWYRQPPGKERELVATITNGGSTYYADSVKGRFTISRDNAKNTVYLQMNSLKPEDTAVYFCAAVTKFGEYAPGSKGYGYWGQGSQVTVSS,low polyreactivity
4,QVQLVESGGGLVQAGGSLRLSCAASGSILDSYAMGWDRQAPGKERELVAASTRSGVRTYYADSVKGRFTISRDNAKNTVYLQMNSLKPEDTAVYYCAARVTRYRDLNYWGQGTQVTVSS,high polyreactivity
5,QVQLVESVGGLVQEGGSLRLSCAASGSIRYAMGRYRQAPGKERELDAAISGRGGNTYYADSVKGSFTISRDNAKNTVYLQMNSLKPEDTAVYYCATRGNRVLTGTRYDYWGQGTQITVSS,high polyreactivity
6,QVQHGESGGGIVQAVVSLRLSCSASGFTFYYYPMGWYRQAPGKERELVAAIDTGGSTNYADSVKGRFTMSRDNAKNTVYLQMNSLKPEDTAVYYCNALQPGLGSPLGEYDYWGQGTQVTVSS,low polyreactivity
7,QVQLVESGGGLVQAGGSLRLSCAASGSTLPPYVMGRYRQAPGKERELVAAISSSSGSTYYADSVKGRFTISRDNAKNTVYLQRNSLKPEDTAVYYCAAVTGWAREEEYWGQGTQVTVSS,low polyreactivity
8,QVQLVESGGGLVHAGGSLRLSCASTGFIYQPYAMGWYRQAPGKEMELVAAITSRGGRTYYADSVKGRFTISRDIANNTVYLQMNRLNPVDTAVYYCNADIYASEYYYWGQGTQVTVSS,low polyreactivity
9,QFQLVESGGGLVQAGGSLRLICDASGSIFYPYTIGWYRQAPWKERQLVAAITWDGGNTYYADSVKGRFTISRDNAKNTVYLQMNSLKREDTAVYYCAAVTSGWGTYRMYYWGQGTQETVSS,high polyreactivity
10,QVQLVESGGGLVQAGGSLRLSCAASGRIFDDNTMGWYRQAPGKEREVVAAISVSGGRTYYADSVKGRFTISRDNAKNTVYIQMNSLKPEDTAVYYCNARLGPFWDYRLKNGTHDYWGQGTQVTVAS,high polyreactivity
11,QVQLVESGGGLVQAGGSLRLSCPASGFTFYGYAMGWYRQAPGKERELVAAIRYSGGSTYYADSVKGRFTISRDNAKNTVYLQMNSLKPEDTAVYYCNKRLIYYRGTYYSRRFDYWGQGTQVTVSS,high polyreactivity
12,QLQLQESGGGLVQADGSLRLSCAASGSIFGYYYMGWYRQAPGKDRELVATINICGITNYADSVKGRFTISRDNAKNTVYLQMNSLKPDDTAVYYCAADEYAQRDLGYWGQGTQVTVSS,low polyreactivity
13,QVQLVESGGGLVQAGGSLRLSCAASGFIFYYYAMGWYRPAPGKERELVAAISRTGGRTYYADSVKWRFTISRDNAKKTVYLQMNSLKPEDTAVYYCAADQGNRFDYWGQGTQVTVSS,high polyreactivity
14,QVQLVDSGGGLVQAGGSLRLSCAASAFIFTRYAMGWYRQAPGKERELVAAISWIGTSTYYADSVKGRFTISRDNAKNTVYLQMNSLKPEDTAVYYCAKRSTSQSLQGVYWGLGTQVTVSS,high polyreactivity
15,QVQLVESGGGLVQAGGSLRLSCAASGSTFSLNAMGWYRQAPGKERELVAAISNVGDTYYADSVKGRFTISRDNAKNTVYLQMNSLKPEDTAVYYCAADGASYYYEYDYWGQGTQVTVSS,low polyreactivity
16,QVQLVESGGGLVQAGGSLRLSCAASGSICGGYAMGWYRQAPGKERELVAGITRSGGSTYYADSVKGRFTISRDNAKNTVYLQMNSLKPEDTAVYYCAVEIQFYRSPRKVRSYDYWGQGTQVTVSS,low polyreactivity
17,QVQLVESGGGLVQAGGSLRLSCAASGSIFFSNAMGWYRQAPGKERELVASISRDVSTNYADSVKGRFTISRDNAKNTVYLQMTSLKPEDTAVYYCAKRYYRYYYITYNGSHYGYWGQGTQVTVSS,low polyreactivity
